Laboratory results as given in publication PMC3961180, “The Kil Peptide of Bacteriophage λ Blocks Escherichia coli Cytokinesis via ZipA-Dependent Inhibition of FtsZ Assembly” (PLoS Genetics, 2014).

Molecular target: the molecule itself
Experiment: co-sedimentation; FtsZ 5 µM, His6-FLAG-Kil 10 µM, His6-tagged ZipAC domains 5 µM, GTP 1 mM in polymerization buffer; 1 mM CaCl2 for calcium-induced bundling; TLA 100.3 rotor at 70,000 rpm; supernatant and pellet on Coomassie-stained gels

B1: E. coli FtsZ (natural protein, UniProt P0A9A6 1-383, looked up)
chain: MFEPMELTNDAVIKVIGVGGGGGNAVEHMVRERIEGVEFFAVNTDAQALRKTAVGQTIQIGSGITKGLGAGANPEVGRNAADEDRDALRAALEGADMVFIAAGMGGGTGTGAAPVVAEVAKDLGILTVAVVTKPFNFEGKKRMAFAEQGITELSKHVDSLITIPNDKLLKVLGRGISLLDAFGAANDVLKGAVQGIAELITRPGLMNVDFADVRTVMSEMGYAMMGSGVASGEDRAEEAAEMAISSPLLEDIDLSGARGVLVNITAGFDLRLDEFETVGNTIRAFASDNATVVIGTSLDPDMNDELRVTVVATGIGMDKRPEITLVTNKQVQQPVMDRYQQHGMAPLTQEQKPVAKVVNDNAPQTAKEPDYLDIPAFLRKQAD
notes: cell division protein FtsZ, E. coli; expressed from pET11a-ftsZ (from H. Erickson); No tag is named for this construct; also called FtsZWT; source: E. coli BL21(DE3) pET11a-ftsZ (WM971), purified (successive 20% and 30% ammonium sulfate cuts)
binding result: binds
